This sample holds only a part of the variants without activity.
B1: TPR 5TU (parent)
chain: GGAUCUUCUCGAUCUAACAAAAAAGACAAAUCUGCCACAAAGCUUGAGAGCAUCUUCGGAUGCAGAGGCGGCAGCCUUCGGUGGCGCGAUAGCGCCAACGUUCUCAACUAUGACACGCAAAACGCGUGCUCCGUUGAAUGGAGUUUAUCAUG

Variants of: B1
Experiment: polymerase ribozyme fitness, log enrichment relative to wild type (log ratio); higher = more active; in vitro selection for triplet polymerase activity
Outline: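 Both subunits of a heterodimeric triplet polymerase ribozyme were given their own mutant library, built by PCR and transcribed. Each library was annealed with a biotinylated primer, the partner subunit and triplets, incubated frozen at −7 °C, and its extended constructs gel-excised, captured on streptavidin beads and amplified by RT-PCR, all in one round done in triplicate. Fitness is the logarithm of genotype enrichment relative to wild-type enrichment, with replicates averaged by inverse-variance weighting. That logarithm is base 2, and Illumina-sequenced genotypes needed ≥10 input reads and ≥1 read per output.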

| Variant | polymerase ribozyme fitness (log ratio) |
| --- | --- |
| GGAUCUUCUCGAUCUAACAAAAAAGACAAAUCUGCCACAAAGCUUGAGAGCAACUUCGGUAGCAGAGGGGGCAGCCUUCGGUGGCGCGAUAGCGCUAACGUUCUCAACUAUGACACGCAAAACGCGUGCUCCGUUGAAUGGAGUUUAUCAUG | -3.74 |
| GGAUCUUCUCGAUCUAACAAAAAAGACAAAUCUGCCACAAAGCUUGAGAGCUACUUCGGAUGCAGAGGCGGCAGCCUUCGGUGGCGCGAUAGCGCCAACGUUCUCAACUAUGACACGCAAAACGCGUGCUCCGUUGAAUGGAGUUUAUCAUG | -1.23 |
| GGAUCUUCUCGAUCUAACAAAAAAGACAAAUCUGCCACAAAGCUUGAGAGCAACUUCGGGUGCAGAGGCGGCAGCCUUCGGUGGCGCGAUAGCGCUAACGUUCUCUACUAUGACACGCAAAACGCGUGCUCCGUUGAAGGGAGUUUAUCAUG | -2.41 |
| GGAUCUUCUCGAUCUAACAAAAAAGACAAAUCUGCCACAAAGCUUGAGAGCUUCUUCGGAUGCAGAGGCGGCAGCCUUCGGUGUCACGAUUGCGCCAACGUUCUCAACUAUGACACGCAAUACGCGUGCUCCGUUGAAUGGAGUUUAUCAUG | ≤ -4.2 |
| GGAUCUUCUCGAUCUAACAAAAAAGACAAAUCUGCCACAAAGCUUGAGAGCUUCUUCGGAUGCAGAGGCGGCAGCCUCCGGUGGCGCGAUAGCGCCAACGUCCUCAACUAUGACACGCAAAACGCGUGCUCCGUUGAAUGGAGUUUAUCAUG | -2.88 |
| GGAUCUUCUCGAUCUAACAAAAAAGACAAAUCUGCCACAAAGCUUGAGAGCUUCUUCGGAUGCAGAGGCGGCAGCCUUCGGUGGCGCGAUAGCGCCAACGUUCACAACUAUGACACGCAAAACGCGUGCUCCCUUGAAUGCAGUUGAUCAUG | ≤ -4.2 |
| GGAUCUUCUCGAUCUAACAAAAAAGACAAAUCUGCCACAAAGCUUGAGAGCAACUUCGGAUGCAGAGGCGGCAGCCUUCGGUGGCGCGUUAGCGCCAACGUUCUCAACUAUGACACGCAAAACGCGUGCUCCGUUGAAUGGAGUUUAUCAUG | -0.481 |
| GGAUCUUCUCGAUCUAACAAAAAAGACAAAUCUGCCACAAAGCUUGAGAGCUGCUACGGAUGCACAGGCGGCAGUCUUCGGUGGUGCGAUAGCGCCAACGUUCGCAACUAUGACACGCAAAACGCGCGCUCCGUUGAAAGGAGUUUAUCAUG | ≤ -4.2 |
| GGAUCUUCUCGAUCUAACAAAAAAGACAAAUCUGCCACAAAGCUUGAGAGCUUCUUCGGAUGCAGAGGCGGCAGCCUUCGGUGGCGCGAUAUCGCCAACGUUCUAAACUAUGACACGCAAAACGCGUGCUCCGUUGAAUGGAGUUUAUCAUG | -3.93 |
| GGAUCUUCUCGAUCUAACAAAAAAGACAAAUCUGCCACAAAGCUUGAGAGCUUCUUCGGAUGCAGAGGCGGCAGCCUUCGGGGGCGCGAUAGCGCCAACGUUCUCAACUAUGACACGCAAAACGCGUGCUCCGUGGAAUGGAGUUUAUCUUG | -2.62 |
| GGAUCUUCUCGAUCUAACAAAAAAGACAAAUCUGCCACAAAGCUUGAGAGCAACUUCGGAUGCAGAGGCGGCAGCCUUCGGUGGCGCGCUAGCACCAACGUUCUCAACUAUGACACGCAAAACGCGUGCUCCGUUGAAUGCAGUUUAUCAUG | -3.63 |
| GGAUCUUCUCGAUCUAACAAAAAAGACAAAUCUGCCACAAAGCUUGAGAGCUUCUACGGAUGCAGUGGCGGCAGCCUUCGGUGGCGCGAUAGAGCCAACGUUCUCAACUAUGACACGCAAAAGGCGUGCUCCGUUGAAUGGAAUUAAUCAUG | ≤ -4.2 |
| GGAUCUUCUCGAUCUAACAAAAAAGACAAAUCUGCCACAAAGCUUGAGAGCUUCUUCGGAUGCAGAGGCGGCAGCCUUCGGUGGCGCGAUAGCGCCAACGUUCUCAACUAUGACACGCAAAACGCGUGCUCCGUUGAAUGGAGGUUCUCAUG | -0.409 |
| GGAUCUUCUCGAUCUAACAAAAAAGACAAAUCUGCCACAAAGCUUGAGAGCUUCAUCGGAUGCAGAGGCGGCAGCCUUCGGUGGCGCGAUAGCGCCAACGUUCUCAACUAUGACACGCAAAACGCGUGCUCCGUUGAAUGGAGUUUAUCAUG | -1.7 |
| GGAUCUUCUCGAUCUAACAAAAAAGACAAAUCUGCCACAAAGCUUGAGAGCAACUUCGGAUGCAGCGGCGGCAGCCUUCGGUGGCGCGAUUGCGCCAACGUUCGCAACUAUGACACGCAAAACACGUGCUCCGUUGAAUGAAGUUUAUCAUG | ≤ -4.2 |
| GGAUCUUCUCGAUCUAACAAAAAAGACAAAUCUGCCACAAAGCUUGAGAGCUGCUUCGGAAGCAGAGGCGGCAGCCUUCGGUGGCGCGAUGGCGCCAACGUUCUCAACUAUGACACGCAAAACGCGUGCGCCGUUGAAUGGAGGUUAUCAUG | ≤ -4.2 |
| GGAUCUUCUCGAUCUAACAAAAAAGACAAAUCUGCCACAAAGCUUGAGAGCAACUUCGGAUGCAGAGGCGGCAGCCUUCGGUGGCGCGAUGGCGCCAACGUUCUCAACUAUGACACGCAAAACACGUGCUCCGUUGAAGGGAGUUAAUCAUG | -3.5 |
| GGAUCUUCUCGAUCUAACAAAAAAGACAAAUCUGCCACAAAGCUUGAGAGCAACUUCGGAUGCAGAGGCGGCAGCCUUCGGUGGCGCGAUAGCGCCGACGUUCUCAACUAUGACACGCAAUACGAGUGCUCCGUUGAAUGGAGUUUAUCAUG | -1.26 |
| GGAUCUUCUCGAUCUAACAAAAAAGACAAAUCUGCCACAAAGCUUGAGAGCAACUUCGGAUGCAGCGGCGGCAGCCUUCGGUGGCGCGGUAGCCCCAAGGUUCUCAACUAUGACACGCAAAACGCGUGCUCCGUUGAAUGGAGUUUAUCAUG | -3.94 |

| Variant | polymerase ribozyme fitness (log ratio) |
| --- | --- |
| GGAUCUUCUCGAUCUAACAAAAAAGACAAAUCUGCCACAAAGCUUGAGAGCAACUUCGGAUGCAGAGGCGGCAGCCUUCGGUGGCGCGAUAGCGCCAGCGGUCUCAACUAUGACACGCAAAACGCGUGCUCCGUUGAAUGGAGUUUAUCAUG | -1.25 |
| GGAUCUUCUCGAUCUAACAAAAAAGACAAAUCUGCCACAAAGCUUGAGAGCAACUUCGGUUGUAGAGGCGGCAGUCGUCGGUGGCGCGAUAGGGCCAACGUUCUCAACUAUGACACGCAAAGCGCGUGCUCCGUUGAAUGGAGUUUAUGAAG | ≤ -4.2 |
| GGAUCUUCUCGAUCUAACAAAAAAGACAAAUCUGCCACAAAGCUUGAGAGCUACUUAGGAUGCAGAGGCGGCAGCCUUCGGUGGCACGAUAGCGCCAACGUUCUCAACUAUGACACGCAAAACGCGUGCUCCGUUGAAUGGAGUUUAUCAUG | -1.31 |
| GGAUCUUCUCGAUCUAACAAAAAAGACAAAUCUGCCACAAAGCUUGAGAGCAACUUCGGAUGCAGAGGCGGCAGCCUUCGGUGGCGCGAUAGCGCCAACGUUCUCAUCUAUGACACGCAAAACGCGUGCUCCGUUGAAUGGAGUUUAUCAUG | -2.93 |
| GGAUCUUCUCGAUCUAACAAAAAAGACAAAUCUGCCACAAAGCUUGAGAGCAACUUCGGAUGCAGAGGCGGCUGCCUUCGGUGGCGCGAUAGCGCCAACGUUCUCAACUAUGACACGCAAAACGCGUGCUCCGUUGAAUGGAGUUUAUCAUG | -2.21 |
| GGAUCUUCUCGAUCUAACAAAAAAGACAAAUCUGCCACAAAGCUUGAGAGCUUCUACGGAUGCAGAGGCGGCAGCCUUGGGUGGCGCGAUAGCGCCAACGUUCUAAACUAUGACACGCAAAACGCGUGCUCCGUUGAAUGGAGUUUAUCAUG | ≤ -4.2 |
| GGAUCUUCUCGAUCUAACAAAAAAGACAAAUCUGCCACAAAGCUUGAGAGCAACUUCGGAUGCAGUGGCGGCAGCCUUCGGUGGCGCGAUAGCGCCAACGUUCUCAACUAUGACACGCAAAACGCGUGCUCCGUUGAAUGGAGUUUAUCAUG | ≤ -4.2 |
| GGAUCUUCUCGAUCUAACAAAAAAGACAAAUCUGCCACAAAGCUUGAGAGCAACUUCGGAUGCAGCGGCGGCAGCCUUCGGUGGCGCGAUAGCGCCAACGUUCUCAACUAUGACACGCAAAACGCGUGCUCCGUUGAAUGGAGUUUAUCAUG | -4.19 |
| GGAUCUUCUCGAUCUAACAAAAAAGACAAAUCUGCCACAAAGCUUGAGAGCUUCUUCGGAUGCAGAGGCGGCAGCCUUCGGUGGCUCGAUAGCGCCAACGUUCCCAACUAUGACACGCAAAACGCGUGCUCCGUUGAAUGGAGUUUAUCAUG | -3.56 |
| GGAUCUUCUCGAUCUAACAAAAAAGACAAAUCUGCCACAAAGCUUGAGAGCAACUUCGGAUGCAGAGGCGGCAGCCUUCGGUGGCGCGAUAGCGCCCACGUUCUCAACUAUGACACGCAAAACGCGUGCUCCGUUGAAUGGAGUUUAUCAUG | -0.583 |
| GGAUCUUCUCGAUCUAACAAAAAAGACAAAUCUGCCACAAAGCUUGAGAGCUUCUUCGGAUGCAGAGGCGGCAGCCUUCGGAGGCGCGAUAGAGCCAACGUUCUCAACUAUGACACGCAAAACGCGUGCUGCGUUGAAUGGAGUUUAUCAUG | ≤ -4.2 |
| GGAUCUUCUCGAUCUAACAAAAAAGACAAAUCUGCCACAAAGCUUGAGAGCUUCUUCGGAGGCAGAGGCGGCAGCCUUCGGUGGCGCGAUGGCGCAAACGUUCUCAACUAUGACACCCAAAACGCGUGCUCCGUUGAAUGGAGUUUAUCAUG | -3.76 |
| GGAUCUUCUCGAUCUAACAAAAAAGACAAAUCUGCCACAAAGCUUGAGAGCUUCUUCGGAUGCAGAGGCGGCAGCCUUCGGUGGCGCGAUAGCGCCAACGUUCUCAACUAUGACACGCAAAACGCGUGCUCCGUUAAAUGGAGUUUAUCAUG | -0.592 |
| GGAUCUUCUCGAUCUAACAAAAAAGACAAAUCUGCCACAAAGCUUGAGAGCUUCUUCGGAUGCAGAGGCGGCAGCCUUCGGUGACGCGAUAGCGCCAACGUUCUCAACUAUGACACGCAAAACGCGUGCUCCGUUGAAUGGACUUUAUCAUG | -3.92 |
| GGAUCUUCUCGAUCUAACAAAAAAGACAAAUCUGCCACAAAGCUUGAGAGCAACUUCGGAUGCAGAGGCGGCAGCCUUCGGUGGCGCGAUAGCGCCAACGUUCUCUACUAUGACACGCAAAACGCGUGCUCCGUUGAAUGGAGUUUAUCAUG | -1.9 |
| GGAUCUUCUCGAUCUAACAAAAAAGACAAAUCUGCCACAAAGCUUGAGAGCAACUUCGGAUGCAGAGGCGGCAGCCUUCGGUGGCGCGAUAGCGCCAUCGUUCUCAACUAUGACACGCAAAACGCGUGCUCCGUUGAAUGGAGUUUAUCAUG | -1.39 |
| GGAUCUUCUCGAUCUAACAAAAAAGACAAAUCUGCCACAAAGCUUGAGAGCUUCUUCGGAUGCAGAGGCGGCAGCCUUCGGUGGCGCGAUAGCGCCAACGUUCUCAACUAUGACACGCAAAACGCGUGCUCCGUUGAAGGGAGCUUAUCAUG | -1.12 |
| GGAUCUUCUCGAUCUAACAAAAAAGACAAAUCUGCCACAAAGCUUGAGAGCAACUUCGGAUGCAGAGGCGGCAGCCUUCGGUGGCGCGAUAGCGCCCACGUUCUCAACUAUGGCACGCAAAACGCGUGCUCCGUUGAAUGGAGUUUAUCAUG | -3.54 |
| GGAUCUUCUCGAUCUAACAAAAAAGACAAAUCUGCCACAAAGCUUGAGAGCUUCUUCGGAUGCAGAGGCGGCAGCCUUCGGUGGCUCGAUAGCGCCAACGUUCUUAACUAUGACACGCAAAACGCGUGCUCCGUUGAAUGGAGUUUAUCAUG | -1.83 |

— the RNAGym collection of RNA variant scans (doi:10.1073/pnas.2313332121)
